Data reported in patent publication US20170082635A1 (University of California, published 2017).
One block for each binder: values may come before it.

B5: yeast 20 S proteasome subunit β3 (PUP3) (other, UniProt P25451 1-205, looked up)
chain: MSDPSSINGGIVVAMTGKDCVAIACDLRLGSQSLGVSNKFEKIFHYGHVFLGITGLATDVTTLNEMFRYKTNLYKLKEERAIEPETFTQLVSSSLYERRFGPYFVGPVVAGINSKSGKPFIAGFDLIGCIDEAKDFIVSGTASDQLFGMCESLYEPNLEPEDLFETISQALLNAADRDALSGWGAVVYIIKKDEVVKRYLKMRQD

Assays:
[1] = molecular target: T1, yeast 20 S proteasome subunit α6 (PRE5) (yeast, UniProt P40302 1-234); assay: DSSO XL-MS of purified yeast 20S proteasome
T1 sequence (looked up): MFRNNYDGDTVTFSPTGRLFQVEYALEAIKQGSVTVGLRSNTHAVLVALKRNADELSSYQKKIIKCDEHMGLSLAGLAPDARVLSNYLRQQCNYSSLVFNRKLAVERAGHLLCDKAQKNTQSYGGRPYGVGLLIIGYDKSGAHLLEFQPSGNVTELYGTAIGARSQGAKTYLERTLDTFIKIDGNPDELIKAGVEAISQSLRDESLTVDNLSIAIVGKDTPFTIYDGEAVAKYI

HB-Rpt6 = molecular target: T2, HB-Rpt6 (human, UniProt P62195 2-406); assay: in vivo azide-A-DSBSO XL-MS of HB-tag purified human proteasome
T2 construct: whole, on cells; stably expressed in 293 cells; used for all links whose Bait column says Rpt6; residue numbers count on P62195, not on the tagged construct; also called Rpt6 (bait); HB tagged proteasome subunit Rpt6; not shown: HB (His-bio) tag, written before Rpt6

[2] = molecular target: T3, human proteasome subunit Rpn5 (human, UniProt O00232 2-456); assay: as above
T3 construct: whole, on cells; endogenous, cross-linked inside intact 293 cells, purified with the HB-tagged bait; also called O00232

[3] = molecular target: B5; assay: DSSO XL-MS of purified yeast 20S proteasome
[4] = molecular target: T4, yeast 20 S proteasome subunit α3 (PRE9) (yeast, UniProt P23638 1-258); assay: DSSO XL-MS of purified yeast 20S proteasome
T4 sequence (looked up): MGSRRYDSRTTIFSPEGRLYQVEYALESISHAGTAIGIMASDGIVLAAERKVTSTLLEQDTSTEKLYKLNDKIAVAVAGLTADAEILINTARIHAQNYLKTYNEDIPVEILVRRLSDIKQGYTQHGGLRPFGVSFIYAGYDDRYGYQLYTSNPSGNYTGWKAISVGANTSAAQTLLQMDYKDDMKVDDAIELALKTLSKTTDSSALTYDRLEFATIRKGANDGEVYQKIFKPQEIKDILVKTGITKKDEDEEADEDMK

binding result [1]: binds
B1: yeast 20 S proteasome subunit β6 (PRE7) (other, UniProt P23724 20-241, looked up)
chain: QFNPYGDNGGTILGIAGEDFAVLAGDTRNITDYSINSRYEPKVFDCGDNIVMSANGFAADGDALVKRFKNSVKWYHFDHNDKKLSINSAARNIQHLLYGKRFFPYYVHTIIAGLDEDGKGAVYSFDPVGSYEREQCRAGGAAASLIMPFLDNQVNFKNQYEPGTNGKVKKPLKYLSVEEVIKLVRDSFTSATERHIQVGDGLEILIVTKDGVRKEFYELKRD
notes: mature

binding result (HB-Rpt6): binds
B2: human proteasome subunit α3 (other, UniProt P25789 1-261, looked up)
chain: MSRRYDSRTTIFSPEGRLYQVEYAMEAIGHAGTCLGILANDGVLLAAERRNIHKLLDEVFFSEKIYKLNEDMACSVAGITSDANVLTNELRLIAQRYLLQYQEPIPCEQLVTALCDIKQAYTQFGGKRPFGVSLLYIGWDKHYGFQLYQSDPSGNYGGWKATCIGNNSAAAVSMLKQDYKEGEMTLKSALALAIKVLNKTMDVSKLSAEKVEIATLTRENGKTVIRVLKQKEVEQLIKKHEEEEAKAEREKKEKEQKEKDK
notes: whole, on cells; endogenous, cross-linked inside intact 293 cells, then purified with the HB-tagged bait under denaturing conditions; also called alpha3; alpha-3

binding result [2]: binds
B3: human proteasome subunit Rpn9 (other, UniProt Q9UNM6 1-376, looked up)
chain: MKDVPGFLQQSQNSGPGQPAVWHRLEELYTKKLWHQLTLQVLDFVQDPCFAQGDGLIKLYENFISEFEHRVNPLSLVEIILHVVRQMTDPNVALTFLEKTREKVKSSDEAVILCKTAIGALKLNIGDLQVTKETIEDVEEMLNNLPGVTSVHSRFYDLSSKYYQTIGNHASYYKDALRFLGCVDIKDLPVSEQQERAFTLGLAGLLGEGVFNFGELLMHPVLESLRNTDRQWLIDTLYAFNSGNVERFQTLKTAWGQQPDLAANEAQLLRKIQLLCLMEMTFTRPANHRQLTFEEIAKSAKITVNEVELLVMKALSVGLVKGSIDEVDKRVHMTWVQPRVLDLQQIKGMKDRLEFWCTDVKSMEMLVEHQAHDILT
notes: whole, on cells; endogenous, cross-linked inside intact 293 cells, purified with the HB-tagged bait; also called Q9UNM6

binding result [3]: binds
B4: yeast 20 S proteasome subunit β4 (PRE1) (other, UniProt P22141 1-198, looked up)
chain: MDIILGIRVQDSVILASSKAVTRGISVLKDSDDKTRQLSPHTLMSFAGEAGDTVQFAEYIQANIQLYSIREDYELSPQAVSSFVRQELAKSIRSRRPYQVNVLIGGYDKKKNKPELYQIDYLGTKVELPYGAHGYSGFYTFSLLDHHYRPDMTTEEGLDLLKLCVQELEKRMPMDFKGVIVKIVDKDGIRQVDDFQAQ

Binder: B5
binding result [4]: binds
